Test results reported in patent US20170037117A1 (SALK INSTITUTE FOR BIOLOGICAL STUDIES, published 2017).
Changes are numbered by the printed parent chain. Ends that are not written are not given here.

T1: human α-CGRP fragment 26-37 (human)
T1 peptide: NFVPTNVGSKAF-NH2

T2: human α-CGRP fragment 1-36-COOH (human, free C-terminus (not amidated))
T2 peptide: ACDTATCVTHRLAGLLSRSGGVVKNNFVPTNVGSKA

T3: human α-CGRP P29A (19-37) (human)
T3 construct: the entry already carries the mutation
T3 peptide: SGGVVKNNFVATNVGSKAF-NH2

T4: rat β-CGRP (1-37) (rat, not fully specified; C-terminal amide; N-terminal biotin when captured on the chip)
T4 construct: also called rat β (1-37)
T4 peptide: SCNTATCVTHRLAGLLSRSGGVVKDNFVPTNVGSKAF

T5: human α-CGRP K35E (19-37) (human, not fully specified)
T5 construct: the entry already carries the mutation
T5 peptide: SGGVVKNNFVPTNVGSEAF-NH2

T6: rat α-CGRP (1-37) (rat, not fully specified; C-terminal amide; N-terminal biotin when captured on the chip)
T6 construct: also called rat α (1-37); α-rat
T6 peptide: T4 peptide with K35E

T7: human α-CGRP 1-37 (WT) (human, not fully specified; C-terminal amide; N-terminal biotin when captured on the chip; 125I label in the radioligand assay)
T7 construct: also called α-human
T7 peptide: T4 peptide with S1A, N3D, D25N

T8: human α-CGRP K35M (19-37) (human, not fully specified)
T8 construct: the entry already carries the mutation
T8 peptide: SGGVVKNNFVPTNVGSMAF-NH2

T9: human β-CGRP (1-37) (human, not fully specified; C-terminal amide; N-terminal biotin when captured on the chip)
T9 construct: also called human β (1-37); β-CGRP (WT)
T9 peptide: T4 peptide with S1A, V22M, D25S

T10: human α-CGRP fragment 8-37 (human, C-terminal amide)
T10 peptide: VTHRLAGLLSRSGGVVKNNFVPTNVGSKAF

T11: human α-CGRP K35A (19-37) (human, not fully specified)
T11 construct: the entry already carries the mutation
T11 peptide: SGGVVKNNFVPTNVGSAAF-NH2

B1: Human adrenomedullin (1-52) (peptide)
peptide: YRQSMNNFQGLRSFGCRFGTCTVQKLAHQIYQFTDKDKDNVAPRSKISPQGY-NH2
modifications: ends and bridges not checked
B2: human α-CGRP fragment 1-19-COOH (peptide)
peptide: ACDTATCVTHRLAGLLSRS-OH
modifications: ends and bridges not checked
B3: Human calcitonin (1-32) (peptide)
peptide: CGNLSTCMLGTYTQDFNKFHTFPQTAIGVGAP-NH2
modifications: ends and bridges not checked
B4: antibody G1 Fab fragment (Fab, V domains shown)
VH: EVQLVESGGGLVQPGGSLRLSCAASGFTFSNYWISWVRQAPGKGLEWVAEIRSESDASATHYAEAVKGRFTISRDNAKNSLYLQMNSLRAEDTAVYYCLAYFDYGLAIQNYWGQGTLVTVSS
VL: EIVLTQSPATLSLSPGERATLSCKASKRVTTYVSWYQQKPGQAPRLLIYGASNRYLGIPARFSGSGSGTDFTLTISSLEPEDFAVYYCSQSYNYPYTFGQGTKLEIK
B5: human α-CGRP fragment 1-13-COOH (peptide)
peptide: ACDTATCVTHRLA-OH
modifications: ends and bridges not checked
B6: Human amylin (1-37) (peptide)
peptide: KCNTATCATQRLANFLVHSSNNFGAILSSTNVGSNTY-NH2
modifications: ends and bridges not checked

How the values were obtained:
antibody G1 Fab fragment = target: B4; assay: Biacore competition: G1 Fab 50 nM pre-incubated 1 h with 10 uM competing peptide, flowed over N-biotinylated human α-CGRP on SA chip; blocked ligand human α-CGRP
Source text: Y axis represents percentage of binding blocked by the presence of the competing peptide compared with the binding in the absence of the competing peptide.
All these peptides are amidated at the C-terminus.

[1] = target: T1, human α-CGRP fragment 26-37; assay: Biacore competition, 50 nM G1 Fab + 10 uM peptide over human α-CGRP on chip
Source text: (§1) Y axis represents percentage of binding blocked by the presence of the competing peptide compared with the binding in the absence of the competing peptide. […]

Human amylin (1-37) = target: B6; assay: as above
Source text: as §1

Human calcitonin (1-32) = target: B3; assay: as above
Source text: as §1

[2] = target: T2, human α-CGRP fragment 1-36-COOH; assay: as above
Source text: as §1

[3] = target: T3, human α-CGRP P29A (19-37); assay: as above
Source text: as §1

[4] = target: B2; assay: as above
Source text: as §1

rat β-CGRP (1-37) = target: T4, rat β-CGRP (1-37); assay: as above
Source text: as §1

[5] = target: T5, human α-CGRP K35E (19-37); assay: as above
Source text: as §1

rat α-CGRP (1-37) = target: T6, rat α-CGRP (1-37); assay: as above
Source text: as §1

human α-CGRP 1-37 (WT) = target: T7, human α-CGRP 1-37 (WT); assay: as above
Source text: as §1

[6] = target: B5; assay: as above
Source text: as §1

[7] = target: T8, human α-CGRP K35M (19-37); assay: as above
Source text: as §1

human β-CGRP (1-37) = target: T9, human β-CGRP (1-37); assay: as above
Source text: as §1

[8] = target: B1; assay: as above
Source text: as §1

[9] = target: T10, human α-CGRP fragment 8-37; assay: as above
Source text: as §1

[10] = target: human α-CGRP fragment 19-36-COOH (human, Table 4: not C-terminally amidated (19-36-COOH); paragraph 408 says amidated at the C-terminus); assay: as above
Source text: as §1

[11] = target: T11, human α-CGRP K35A (19-37); assay: as above
Source text: as §1

Binder: B1
% Binding blocked (antibody G1 Fab fragment): 0%

Binder: B2
% Binding blocked (antibody G1 Fab fragment): 0%

Binder: B3
% Binding blocked (antibody G1 Fab fragment): 0%

Binder: B4
percentage of binding blocked [1]: 100% | binding result (Human amylin (1-37)): no binding (tested: 10 uM peptide) | binding result (Human calcitonin (1-32)): no binding (tested: 10 uM peptide) | percentage of binding blocked [2]: ~40% | percentage of binding blocked [3]: 100% | binding result [4]: no binding (tested: 10 uM peptide) | percentage of binding blocked (rat β-CGRP (1-37)): 100% | percentage of binding blocked [5]: 100% | percentage of binding blocked (rat α-CGRP (1-37)): 100% | percentage of binding blocked (human α-CGRP 1-37 (WT)): 100% | binding result [6]: no binding (tested: 10 uM peptide) | percentage of binding blocked [7]: 100% | percentage of binding blocked (human β-CGRP (1-37)): 100% | binding result [8]: no binding (tested: 10 uM peptide) | percentage of binding blocked [9]: 100% | binding result [10]: no binding (tested: 10 uM peptide) | percentage of binding blocked [11]: 100%

Binder: B5
% Binding blocked (antibody G1 Fab fragment): 0%

Binder: B6
% Binding blocked (antibody G1 Fab fragment): 0%
